In series [1] the test system is MCF7. Nature of the series: percentage of EdU-negative (G0-arrested) nuclei per well, 72 h; higher = more G0 arrest. Particulars: reference: sequence is the full UniProt precursor, the tested protein was the secreted form or ectodomain.
Series [2] has as its system hTERT-HMEC. Described as above. Particulars: reference: sequence is the full UniProt precursor, the tested protein was the secreted form or ectodomain.
The mark [3] stands for this setting: protein concentration 0.03125 µM.
[4] abbreviates: protein concentration 0.3125 µM.
Where [5] appears, read: protein concentration 0.0225 µM.
Where [6] appears, read: protein concentration 0.0261 µM.

The values that follow come from the supplement of paper PMC11316812.

± gives the standard deviation of the averaged measurements.
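Also: secreted proteins added to cultured cells, EdU pulse at the end, nuclei found by Hoechst imaging, EdU status from nuclear versus surrounding ring intensity ratio, PBS as neutral control.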

Consider “MRALVLLLSLFLLGGQAQHVSDWTYSEGALDEAHWPQHYPACGGQRQSPINLQRTKVRYNPSLKGLNMTGYETQAGEFPMVNNGHTVQISLPSTMRMTVADGTVYIAQQMHFHWGGASSEISGSEHTVDGIRHVIEIHIVHYNSKYKSYDIAQDAPDGLAVLAAFVEVKNYPENTYYSNFISHLANIKYPGQRTTLTGLDVQDMLPRNLQHYYTYHGSLTTPPCTENVHWFVLADFVKLSRTQVWKLENSLLDHRNKTIHNDYRRTQPLNHRVVESNFPNQEYTLGSEFQFYLHKIEEILDYLRRALN”, for which the “percentage of EdU-negative” value in series [1] (setting [3]) amounted to 24.6 ± 1.3%; in series [1] (setting [4]) it was 23.7 ± 0.28%; in series [2] (setting [3]), 5.04 ± 0.54%; in series [2] (setting [4]), 4.6 ± 0.89%.
“MRAPGMRSRPAGPALLLLLLFLGAAESVRRAQPPRRYTPDWPSLDSRPLPAWFDEAKFGVFIHWGVFSVPAWGSEWFWWHWQGEGRPQYQRFMRDNYPPGFSYADFGPQFTARFFHPEEWADLFQAAGAKYVVLTTKHHEGFTNWPSPVSWNWNSKDVGPHRDLVGELGTALRKRNIRYGLYHSLLEWFHPLYLLDKKNGFKTQHFVSAKTMPELYDLVNSYKPDLIWSDGEWECPDTYWNSTNFLSWLYNDSPVKDEVVVNDRWGQNCSCHHGGYYNCEDKFKPQSLPDHKWEMCTSIDKFSWGYRRDMALSDVTEESEIISELVQTVSLGGNYLLNIGPTKDGLIVPIFQERLLAVGKWLSINGEAIYASKPWRVQWEKNTTSVWYTSKGSAVYAIFLHWPENGVLNLESPITTSTTKITMLGIQGDLKWSTDPDKGLFISLPQLPPSAVPAEFAWTIKLTGVK”: the “percentage of EdU-negative” value in series [1] (setting [3]) was found to be 23.7 ± 2%; in series [1] (setting [4]), 27.8 ± 1.4%; in series [2] (setting [3]) it was 5.35 ± 1.3%; in series [2] (setting [4]), 6.003 ± 0.042%.
Regarding “MRAPHLHLSAASGARALAKLLPLLMAQLWAAEAALLPQNDTRLDPEAYGSPCARGSQPWQVSLFNGLSFHCAGVLVDQSWVLTAAHCGNKPLWARVGDDHLLLLQGEQLRRTTRSVVHPKYHQGSGPILPRRTDEHDLMLLKLARPVVLGPRVRALQLPYRCAQPGDQCQVAGWGTTAARRVKYNKGLTCSSITILSPKECEVFYPGVVTNNMICAGLDRGQDPCQSDSGGPLVCDETLQGILSWGVYPCGSAQHPAVYTQICKYMSWINKVIRSN”, the “percentage of EdU-negative” value in series [1] (setting [5]) worked out at 26.7 ± 0.38%; in series [1] (protein concentration 0.225 µM), 26.9 ± 1.7%; in series [2] (setting [5]) it was 3.89 ± 0.14%; in series [2] (protein concentration 0.225 µM) it was 6.32 ± 0.7%.
Consider “MRAPLLPPAPVVLSLLILGSGHYAAGLDLNDTYSGKREPFSGDHSADGFEVTSRSEMSSGSEISPVSEMPSSSEPSSGADYDYSEEYDNEPQIPGYIVDDSVRVEQVVKPPQNKTESENTSDKPKRKKKGGKNGKNRRNRKKKNPCNAEFQNFCIHGECKYIEHLEAVTCKCQQEYFGERCGEKSMKTHSMIDSSLSKIALAAIAAFMSAVILTAVAVITVQLRRQYVRKYEGEAEERKKLRQENGNVHAIA”, for which the “percentage of EdU-negative” value came to 26.1 ± 0.68% in series [1] (setting [6]), 25.9 ± 1.5% in series [1] (protein concentration 0.261 µM), 5.2 ± 0.8% in series [2] (setting [6]) and 5.0893 ± 0.0048% in series [2] (protein concentration 0.261 µM).
As for “MRARPRPRPLWATVLALGALAGVGVGGPNICTTRGVSSCQQCLAVSPMCAWCSDEALPLGSPRCDLKENLLKDNCAPESIEFPVSEARVLEDRPLSDKGSGDSSQVTQVSPQRIALRLRPDDSKNFSIQVRQVEDYPVDIYYLMDLSYSMKDDLWSIQNLGTKLATQMRKLTSNLRIGFGAFVDKPVSPYMYISPPEALENPCYDMKTTCLPMFGYKHVLTLTDQVTRFNEEVKKQSVSRNRDAPEGGFDAIMQATVCDEKIGWRNDASHLLVFTTDAKTHIALDGRLAGIVQPNDGQCHVGSDNHYSASTTMDYPSLGLMTEKLSQKNINLIFAVTENVVNLYQNYSELIPGTTVGVLSMDSSNVLQLIVDAYGKIRSKVELEVRDLPEELSLSFNATCLNNEVIPGLKSCMGLKIGDTVSFSIEAKVRGCPQEKEKSFTIKPVGFKDSLIVQVTFDCDCACQAQAEPNSHRCNNGNGTFECGVCRCGPGWLGSQCECSEEDYRPSQQDECSPREGQPVCSQRGECLCGQCVCHSSDFGKITGKYCECDDFSCVRYKGEMCSGHGQCSCGDCLCDSDWTGYYCNCTTRTDTCMSSNGLLCSGRGKCECGSCVCIQPGSYGDTCEKCPTCPDACTFKKECVECKKFDRGALHDENTCNRYCRDEIESVKELKDTGKDAVNCTYKNEDDCVVRFQYYEDSSGKSILYVVEEPECPKGPDILVVLLSVMGAILLIGLAALLIWKLLITIHDRKEFAKFEEERARAKWDTANNPLYKEATSTFTNITYRGT”, the “percentage of EdU-negative” value in series [1] (protein concentration 0.009 µM) worked out at 26.2 ± 0.6%; in series [1] (protein concentration 0.09 µM), 27.7 ± 1.2%; in series [2] (protein concentration 0.009 µM), 4.78 ± 0.31%; in series [2] (protein concentration 0.09 µM), 16.9 ± 4.2%.
For “MRARRGLLRLPRRSLLAALFFFSLSSSLLYFVYVAPGIVNTYLFMMQAQGILIRDNVRTIGAQVYEQVLRSAYAKRNSSVNDSDYPLDLNHSETFLQTTTFLPEDFTYFANHTCPERLPSMKGPIDINMSEIGMDYIHELFSKDPTIKLGGHWKPSDCMPRWKVAILIPFRNRHEHLPVLFRHLLPMLQRQRLQFAFYVVEQVGTQPFNRAMLFNVGFQEAMKDLDWDCLIFHDVDHIPESDRNYYGCGQMPRHFATKLDKYMYLLPYTEFFGGVSGLTVEQFRKINGFPNAFWGWGGEDDDLWNRVQNAGYSVSRPEGDTGKYKSIPHHHRGEVQFLGRYALLRKSKERQGLDGLNNLNYFANITYDALYKNITVNLTPELAQVNEY”, the “percentage of EdU-negative” value is 24.5 ± 0.93% in series [1] (protein concentration 0.016 µM), 30.8 ± 1.6% in series [1] (protein concentration 0.16 µM), 5.58 ± 0.37% in series [2] (protein concentration 0.016 µM) and 20.8 ± 1.2% in series [2] (protein concentration 0.16 µM).
